B1: unlabeled HPF1 (full length) (natural protein, UniProt Q9NWY4 1-346, looked up)
chain: MVGGGGKRRPGGEGPQCEKTTDVKKSKFCEADVSSDLRKEVENHYKLSLPEDFYHFWKFCEELDPEKPSDSLSASLGLQLVGPYDILAGKHKTKKKSTGLNFNLHWRFYYDPPEFQTIIIGDNKTQYHMGYFRDSPDEFPVYVGINEAKKNCIIVPNGDNVFAAVKLFLTKKLREITDKKKINLLKNIDEKLTEAARELGYSLEQRTVKMKQRDKKVVTKTFHGAGLVVPVDKNDVGYRELPETDADLKRICKTIVEAASDEERLKAFAPIQEMMTFVQFANDECDYGMGLELGMDLFCYGSHYFHKVAGQLLPLAYNLLKRNLFAEIIEEHLANRSQENIDQLAA
notes: Histone PARylation Factor 1 (HPF1), full length, without fluorescent protein; also called unlabelled full length HPF1; desalted unlabeled HPF1
B2: CFP-PARP2 (mCerulean fused to the N-terminus of the PARP2 ART domain) (domain or fragment, human, UniProt Q9UGN5-1 356-583, looked up)
chain: HPLDQHYRNLHCALRPLDHESYEFKVISQYLQSTHAPTHSDYTMTLLDLFEVEKDGEKEAFREDLHNRMLLWHGSRMSNWVGILSHGLRIAPPEAPITGYMFGKGIYFADMSSKSANYCFASRLKNTGLLLLSEVALGQCNELLEANPKAEGLLQGKHSTKGLGKMAPSSAHFVTLNGSTVPLGPASDTGILNPDGYTLNYNEYIVYNPNQVRMRYLLKVQFNFLQLW
notes: Construct order: His6 tag-CFP-TEV protease site-ART domain; source: E. coli BL21(DE3), purified (Ni-NTA IMAC, SEC); not shown: mCerulean (CFP), N-terminal, kept

Assays:
PARP1 = molecular target: T1, PARP1 (Homo sapiens, UniProt P09874, DEL678-787); assay: biochemical; type: binding
T1 construct: PARP1 ART fragment [T661-F676 + GSGSGSGG + (D788-W1014)], CFP-fused; with HPF1
T1 sequence (P09874 788-1014, stated change not applied, other chains not shown): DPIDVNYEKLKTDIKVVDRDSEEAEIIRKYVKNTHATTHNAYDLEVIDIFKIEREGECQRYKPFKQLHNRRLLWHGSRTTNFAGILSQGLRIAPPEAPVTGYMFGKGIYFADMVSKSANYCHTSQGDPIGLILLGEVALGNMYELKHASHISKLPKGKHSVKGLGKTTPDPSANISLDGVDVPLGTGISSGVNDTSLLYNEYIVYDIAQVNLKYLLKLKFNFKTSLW

PARP2 [1] = molecular target: T2, PARP2 (Homo sapiens, UniProt Q9UGN5); assay: FRET PARP2-HPF1 interaction inhibition (olaparib present); nanoDSF shift of the PARP2 ART domain ([…] to […] °C), none for HPF1; type: binding; design: PARP2 ART domain (CFP-fused in FRET); with HPF1
PARP2 [2] = molecular target: T2, PARP2; details: cited from earlier work
PARP1 ART (Homo sapiens) = PARP1 ART (Homo sapiens) (UniProt P09874); details: cited from earlier work
Chain of PARP1 ART (Homo sapiens) (P09874 788-1014): as the sequence (P09874 788-1014, stated change not applied, other chains not shown) above

[3] = molecular target: B2; assay: FRET or BRET; competition of the FRET pair (CFP-PARP2, YFP-HPF1) with desalted (buffer-exchanged) unlabeled HPF1; rFRET read-out; HPF1 aggregated at high concentrations without salt; details: both partners purified
[4] = molecular target: B2; assay: FRET or BRET; competition of the FRET pair (400 nM CFP-PARP2, 800 nM YFP-HPF1) with increasing unlabeled HPF1 whose stock adds salt; rFRET read-out; apparent IC50; 20 µl, 384-well plates, 4 replicates; details: both partners purified
[5] = molecular target: T3, YFP-HPF1 (mCitrine fused to the N-terminus of full length HPF1) (UniProt Q9NWY4 1-346); assay: FRET or BRET; in solution; constant 400 nM CFP-PARP2 mixed with YFP-HPF1 250 nM to 10.5 µM, first mixed at high concentration in presence of Olaparib, salt backfilled; EmFRET by the method of Song et al.; 10 µl, 384-well plates, 4 replicates, 3 independent experiments; details: both partners purified
T3 construct: Histone PARylation Factor 1 (HPF1), full length; The methods print 'His6 tag- CFP-TEV protease site followed by full length HPF1' for the YFP-tagged HPF1; This is probably a slip for YFP, since the vector is pNIC-YFP; also called Histone PARylation Factor; source: E. coli BL21(DE3), purified (Ni-NTA IMAC, SEC); not shown: mCitrine (YFP), N-terminal, kept
T3 sequence (looked up): B1 chain

With `CC(C)=CC[C@H](O)C1=CC(=O)c2c(O)ccc(O)c2C1=O` [Alkannin] as the molecule, how does the IC50 (PARP1) read?
The IC50 was 16.2 µM.

And the IC50 (PARP2 [1])?
Its IC50 is 21.2 µM.

What does the source list for HPF1 (from UniProt Q9NWY4)?
Kd (PARP2 [2]): 3 µM; Kd (PARP1 ART (Homo sapiens)): 1.5 µM

Which IC50 (PARP1) does the source give for `CC(C)=CC[C@@H](OC(=O)C=C(C)C)C1=CC(=O)c2c(O)ccc(O)c2C1=O` [Dimethylacrylshikonin] here?
The IC50 was 29.3 µM.

What about the IC50 (PARP2 [1]) of the same molecule?
The IC50 was 15.7 µM.

With B1 as the molecule, how does the IC50 [3] read?
The IC50 was 24 µM.

And the IC50 [4]?
Its IC50 is 1.5 µM.

With B2 as the molecule, how does the Kd [5] read?
The Kd was 2 ± 0.18 µM.
